Results reported in publication PMC5746516.

Target: Protein phosphatase 1 (PP1) (UniProt P62136)
Assay: co-IP

UniProt P62136, sequence (P62136 whole entry): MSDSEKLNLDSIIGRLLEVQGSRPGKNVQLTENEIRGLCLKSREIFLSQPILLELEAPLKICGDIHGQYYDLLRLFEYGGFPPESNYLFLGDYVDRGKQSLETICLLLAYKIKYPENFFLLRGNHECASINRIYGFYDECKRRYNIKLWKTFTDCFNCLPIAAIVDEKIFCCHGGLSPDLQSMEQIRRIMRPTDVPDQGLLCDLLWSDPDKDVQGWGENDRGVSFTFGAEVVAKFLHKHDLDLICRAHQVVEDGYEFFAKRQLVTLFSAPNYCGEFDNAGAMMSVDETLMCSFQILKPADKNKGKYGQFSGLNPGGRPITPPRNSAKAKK

| interaction with PP1 by co-IP densitometry, percent of wild type [%] | Binder |
| --- | --- |
| 28.9 | NBCe1-B 3-point mutant (F922A, R925A, and K927A), GFP-tagged (natural protein) MEDEAVLDRGASFLKHVCDEEEVEGHHTIYIGVHVPKSYRRRRRHKRKTGHKEKKEKERISENYSDKSDIENADESSSSILKPLISPAAERIRFILGEEDDSPAPPQLFTELDELLAVDGQEMEWKETARWIKFEEKVEQGGERWSKPHVATLSLHSLFELRTCMEKGSIMLDREASSLPQLVEMIVDHQIETGLLKPELKDKVTYTLLRKHRHQTKKSNLRSLADIGKTVSSASRMFTNPDNGSPAMTHRNLTSSSLNDISDKPEKDQLKNKFMKKLPRDAEASNVLVGEVDFLDTPFIAFVRLQQAVMLGALTEVPVPTRFLFILLGPKGKAKSYHEIGRAIATLMSDEVFHDIAYKAKDRHDLIAGIDEFLDEVIVLPPGEWDPAIRIEPPKSLPSSDKRKNMYSGGENVQMNGDTPHDGGHGGGGHGDCEELQRTGRFCGGLIKDIKRKAPFFASDFYDALNIQALSAILFIYLATVTNAITFGGLLGDATDNMQGVLESFLGTAVSGAIFCLFAGQPLTILSSTGPVLVFERLLFNFSKDNNFDYLEFRLWIGLWSAFLCLILVATDASFLVQYFTRFTEEGFSSLISFIFIYDAFKKMIKLADYYPINSNFKVGYNTLFSCTCVPPDPANISISNDTTLAPEYLPTMSSTDMYHNTTFDWAFLSKKECSKYGGNLVGNNCNFVPDITLMSFILFLGTYTSSMALKKFKTSPYFPTTARKLISDFAIILSILIFCVIDALVGVDTPKLIVPSEFKPTSPNRGWFVPPFGENPWWVCLAAAIPALLVTILIFMDQQITAVIVNRKEHKLKKGAGYHLDLFWVAILMVICSLMALPWYVAATVISIAHIDSLKMETETSAPGEQPKFLGVREQRVTGTLVFILTGLSVFMAPILKFIPMPVLYGVFLYMGVASLNGVQAMDALALLLMPLKHQPDFIYLRHVPLRRVHLFTFLQVLCLALLWILKSTVAAIIFPVMILALVAVRKGMDYLFSQHDLSFLDDVIPEKDKKKKEDEKKKKKKKGSLDSDNDDSDCPYSEKVPSIKIPMDIMEQQPFLSDSKPSDRERSPTFLERHTSC |
| 18.2 | NBCe1-B PP1-binding consensus residue deletion mutant (deletion of amino acids 922-927), GFP-tagged (natural protein) MEDEAVLDRGASFLKHVCDEEEVEGHHTIYIGVHVPKSYRRRRRHKRKTGHKEKKEKERISENYSDKSDIENADESSSSILKPLISPAAERIRFILGEEDDSPAPPQLFTELDELLAVDGQEMEWKETARWIKFEEKVEQGGERWSKPHVATLSLHSLFELRTCMEKGSIMLDREASSLPQLVEMIVDHQIETGLLKPELKDKVTYTLLRKHRHQTKKSNLRSLADIGKTVSSASRMFTNPDNGSPAMTHRNLTSSSLNDISDKPEKDQLKNKFMKKLPRDAEASNVLVGEVDFLDTPFIAFVRLQQAVMLGALTEVPVPTRFLFILLGPKGKAKSYHEIGRAIATLMSDEVFHDIAYKAKDRHDLIAGIDEFLDEVIVLPPGEWDPAIRIEPPKSLPSSDKRKNMYSGGENVQMNGDTPHDGGHGGGGHGDCEELQRTGRFCGGLIKDIKRKAPFFASDFYDALNIQALSAILFIYLATVTNAITFGGLLGDATDNMQGVLESFLGTAVSGAIFCLFAGQPLTILSSTGPVLVFERLLFNFSKDNNFDYLEFRLWIGLWSAFLCLILVATDASFLVQYFTRFTEEGFSSLISFIFIYDAFKKMIKLADYYPINSNFKVGYNTLFSCTCVPPDPANISISNDTTLAPEYLPTMSSTDMYHNTTFDWAFLSKKECSKYGGNLVGNNCNFVPDITLMSFILFLGTYTSSMALKKFKTSPYFPTTARKLISDFAIILSILIFCVIDALVGVDTPKLIVPSEFKPTSPNRGWFVPPFGENPWWVCLAAAIPALLVTILIFMDQQITAVIVNRKEHKLKKGAGYHLDLFWVAILMVICSLMALPWYVAATVISIAHIDSLKMETETSAPGEQPKFLGVREQRVTGTLVFILTGLSVFMAPILKFIPMPVLYGVFLYMGVASLNGVQLLLMPLKHQPDFIYLRHVPLRRVHLFTFLQVLCLALLWILKSTVAAIIFPVMILALVAVRKGMDYLFSQHDLSFLDDVIPEKDKKKKEDEKKKKKKKGSLDSDNDDSDCPYSEKVPSIKIPMDIMEQQPFLSDSKPSDRERSPTFLERHTSC |
